Laboratory results: US20260317437 (published 2026)
Numbering of substitutions follows the chain as printed. Numbers in names are those of the source. Read-outs that look alike come from different tables or passages of the source. One block for each binder: values may come before it.

Assays:
Test in all cases: SPR
[1] = molecular target: T1, GCGR extracellular domain (human, UniProt P47871)
[2] = molecular target: T1, GCGR extracellular domain; remark: listed apart in the source
[3] = molecular target: T1, GCGR extracellular domain; remark: listed apart in the source
[4] = molecular target: T1, GCGR extracellular domain; remark: listed apart in the source

T1 sequence (P47871 26-477): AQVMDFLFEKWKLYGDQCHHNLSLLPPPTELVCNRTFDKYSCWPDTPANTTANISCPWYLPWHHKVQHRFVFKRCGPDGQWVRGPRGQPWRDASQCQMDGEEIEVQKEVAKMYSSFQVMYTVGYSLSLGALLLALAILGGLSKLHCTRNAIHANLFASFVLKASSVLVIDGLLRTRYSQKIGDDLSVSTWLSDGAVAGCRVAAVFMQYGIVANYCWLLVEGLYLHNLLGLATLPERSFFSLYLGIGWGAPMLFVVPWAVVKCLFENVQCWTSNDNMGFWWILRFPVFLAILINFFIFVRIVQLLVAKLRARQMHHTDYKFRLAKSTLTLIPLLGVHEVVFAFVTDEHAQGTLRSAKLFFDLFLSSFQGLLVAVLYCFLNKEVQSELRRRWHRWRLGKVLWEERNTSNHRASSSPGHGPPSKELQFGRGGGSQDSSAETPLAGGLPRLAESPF

B3: VH Y33A (antibody, V domains shown)
VH: EVQLVESGGGLVQPGGSLRLSCAASGFNIYYNAIHWVRQAPGKGLEWVAEFSPYSGSTYYADSVKGRFTISADTSKNTAYLQMNSLRAEDTAVYYCARSAAIVDWYDYFKGFDYWGQGTLVTVSS
VL: DIQMTQSPSSLSASVGDRVTITCRASQSVSSAVAWYQQKPGKAPKLLIYSASSLYSGVPSRFSGSRSGTDFTLTISSLQPEDFATYYCQQYGSYLYTFGQGTKVEIK
Kd [2]: 267 nM
Kd [3]: 53 nM

B4: VH F51A (antibody, V domains shown)
VH: B3 VH with A33Y, F51A
VL: B3 VL
Kd [3]: 1.5 nM

B5: VL Y96A (antibody, V domains shown)
VH: B3 VH with A33Y
VL: B3 VL with Y96A
Kd [3]: 0.93 nM

B6: VH Y100bR (antibody, V domains shown)
VH: B3 VH with A33Y, Y106R
VL: B3 VL
Kd [1]: 7.08 nM
Kd [2]: 7.08 nM

B7: VH Y100bQ (antibody, V domains shown)
VH: B3 VH with A33Y, Y106Q
VL: B3 VL
Kd [1]: 6.08 nM
Kd [2]: 6.08 nM

B9: VH Y59A (antibody, V domains shown)
VH: B3 VH with A33Y, Y59A
VL: B3 VL
Kd [3]: 0.32 nM

B11: VL Y91A (antibody, V domains shown)
VH: B3 VH with A33Y
VL: B3 VL with Y91A
Kd [2]: 98.5 nM
Kd [3]: 0.84 nM

B12: VH Y31A (antibody, V domains shown)
VH: B3 VH with Y31A, A33Y
VL: B3 VL
binding result [4]: no binding
Kd [3]: 206 nM

B14: VH Y100bK (antibody, V domains shown)
VH: B3 VH with A33Y, Y106K
VL: B3 VL
Kd [1]: 7.75 nM
Kd [2]: 7.75 nM

B17: VH Y54A (antibody, V domains shown)
VH: B3 VH with A33Y, Y54A
VL: B3 VL
Kd [3]: 46 nM

B18: VH W100aA (antibody, V domains shown)
VH: B3 VH with A33Y, W105A
VL: B3 VL
Kd [2]: 16.3 nM
Kd [3]: 11 nM

Results, then the binder that gave them:

Kd [1]: 5.14 nM
Kd [2]: 5.14 nM
B1: VH Y30H (antibody, V domains shown)
VH: B3 VH with Y30H, A33Y
VL: B3 VL

Kd [1]: 5.2 nM
Kd [2]: 5.2 nM
B2: VH W100aF (antibody, V domains shown)
VH: B3 VH with A33Y, W105F
VL: B3 VL

Kd [1]: 1.6 nM
Kd [2]: 1.6 nM
B8: VL Y94K (antibody, V domains shown)
VH: B3 VH with A33Y
VL: B3 VL with Y94K

Kd [1]: 5.24 nM
Kd [2]: 5.24 nM
B10: VH W100aL (antibody, V domains shown)
VH: B3 VH with A33Y, W105L
VL: B3 VL

Kd [1]: 5.88 nM
Kd [2]: 5.88 nM
B13: VH W100aV (antibody, V domains shown)
VH: B3 VH with A33Y, W105V
VL: B3 VL

Kd [1]: 2.53 nM
Kd [2]: 2.53 nM
Kd [3]: 0.61 nM
B15: anti-GCGR IgG1 parent (antibody, V domains shown)
VH: B3 VH with A33Y
VL: B3 VL

Kd [1]: 2.9 nM
Kd [2]: 2.9 nM
B16: VH Y100bH (antibody, V domains shown)
VH: B3 VH with A33Y, Y106H
VL: B3 VL
